{"source": "patent EP2028187A1", "about": "(BOARD OF REGENTS, THE UNIVERSITY OF TEXAS SYSTEM, dated 2009)", "key": {"[1]": {"biological_target": "T1, GST-β3cyto (GST fusion protein of the integrin β3 cytoplasmic domain) (UniProt O54890)", "T1 sequence": "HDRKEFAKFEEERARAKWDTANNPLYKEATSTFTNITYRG", "assay": "phage colonies recovered from β3-GST-coated wells divided by those from GST wells"}, "[2]": {"biological_target": "T1, GST-β3cyto (GST fusion protein of the integrin β3 cytoplasmic domain)", "assay": "phage colonies recovered from β3-GST-coated wells divided by those from BSA wells"}, "[3]": {"biological_target": "GST-β5cyto (GST fusion protein of the integrin β5 cytoplasmic domain) (UniProt P18084)", "sequence (P18084 other isoform, or with tags, fused parts or gaps)": "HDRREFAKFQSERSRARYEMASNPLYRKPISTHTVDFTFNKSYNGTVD", "assay": "competition ELISA on GST-β5-coated plates, in the absence of calcium"}, "[4]": {"biological_target": "GST-β5cyto (GST fusion protein of the integrin β5 cytoplasmic domain) (UniProt P18084)", "assay": "competition ELISA on GST-β5-coated plates, in the presence of calcium"}, "[5]": {"biological_target": "GST-β5cyto (GST fusion protein of the integrin β5 cytoplasmic domain) (UniProt P18084)", "assay": "phage colonies recovered from β5-GST-coated wells divided by those from GST wells"}, "[6]": {"biological_target": "GST-β5cyto (GST fusion protein of the integrin β5 cytoplasmic domain) (UniProt P18084)", "assay": "phage colonies recovered from β5-GST-coated wells divided by those from BSA wells"}, "[7]": {"biological_target": "Aminopeptidase A (APA, EC 3.4.11.7) on cells (UniProt Q07075)", "sequence (Q07075 whole entry)": "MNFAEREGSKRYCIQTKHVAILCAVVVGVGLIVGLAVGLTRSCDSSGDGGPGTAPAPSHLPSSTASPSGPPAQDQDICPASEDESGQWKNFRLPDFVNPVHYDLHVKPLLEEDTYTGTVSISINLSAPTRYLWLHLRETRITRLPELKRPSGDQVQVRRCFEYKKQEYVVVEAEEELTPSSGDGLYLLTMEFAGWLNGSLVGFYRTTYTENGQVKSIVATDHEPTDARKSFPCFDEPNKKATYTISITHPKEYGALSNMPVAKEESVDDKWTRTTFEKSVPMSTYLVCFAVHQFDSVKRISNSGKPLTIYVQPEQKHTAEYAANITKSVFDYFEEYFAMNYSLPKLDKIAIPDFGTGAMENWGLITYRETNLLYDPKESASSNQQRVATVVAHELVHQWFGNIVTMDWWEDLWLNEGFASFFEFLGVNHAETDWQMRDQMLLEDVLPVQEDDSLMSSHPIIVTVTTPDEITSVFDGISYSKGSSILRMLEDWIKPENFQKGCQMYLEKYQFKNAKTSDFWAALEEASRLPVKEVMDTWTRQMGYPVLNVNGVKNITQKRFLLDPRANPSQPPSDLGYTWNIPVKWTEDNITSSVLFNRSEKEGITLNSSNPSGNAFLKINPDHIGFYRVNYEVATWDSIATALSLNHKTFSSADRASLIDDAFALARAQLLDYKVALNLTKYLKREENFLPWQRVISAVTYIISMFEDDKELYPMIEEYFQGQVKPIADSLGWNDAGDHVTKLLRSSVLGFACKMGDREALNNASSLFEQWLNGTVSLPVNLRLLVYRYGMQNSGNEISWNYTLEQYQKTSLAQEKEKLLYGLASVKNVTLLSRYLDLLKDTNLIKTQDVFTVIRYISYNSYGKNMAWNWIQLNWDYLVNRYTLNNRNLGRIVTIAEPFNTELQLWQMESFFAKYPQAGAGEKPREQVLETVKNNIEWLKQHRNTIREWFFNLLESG", "assay": "phage binding to SK-RC-49/APA cells in suspension, phage rescued and counted (not shown)"}, "[8]": {"biological_target": "T1, GST-β3cyto (GST fusion protein of the integrin β3 cytoplasmic domain)", "assay": "colonies of Fyn-phosphorylated phage divided by those of unphosphorylated phage bound to the β3 cytoplasmic domain"}, "[9]": {"biological_target": "T1, GST-β3cyto (GST fusion protein of the integrin β3 cytoplasmic domain)", "assay": "β3 colonies divided by GST colonies after panning"}, "[10]": {"biological_target": "T1, GST-β3cyto (GST fusion protein of the integrin β3 cytoplasmic domain)", "assay": "β3 colonies divided by BSA colonies after panning"}, "[11]": {"biological_target": "Aminopeptidase A (APA, EC 3.4.11.7) on cells (UniProt Q07075 1-957, limits assumed)", "sequence (Q07075 whole entry)": "as above", "assay": "cell-based or functional assay"}, "[12]": {"biological_target": "GST-β5cyto (GST fusion protein of the integrin β5 cytoplasmic domain) (UniProt P18084)", "assay": "colonies of Fyn-phosphorylated phage divided by those of unphosphorylated phage bound to the β5 cytoplasmic domain"}, "[13]": {"biological_target": "GST-β5cyto (GST fusion protein of the integrin β5 cytoplasmic domain) (UniProt P18084)", "assay": "β5 colonies divided by BSA colonies after panning"}, "[14]": {"biological_target": "GST-β5cyto (GST fusion protein of the integrin β5 cytoplasmic domain) (UniProt P18084)", "assay": "β5 colonies divided by GST colonies after panning"}}, "note": "Square brackets hold non-standard residues; d marks the D form. Ends that are not written are not given here. pY = N[C@@H](Cc1ccc(OP(=O)(O)O)cc1)C(=O)O"}
{"binder": "CARLEVLLPC", "note": "[phage displaying … (SEQ ID NO:94)]", "values": [{"measurement": "β3/GST Ratio", "setting": "[1]", "value": 2.8}, {"measurement": "β3/BSA Ratio", "setting": "[2]", "value": 18.7}]}
{"binder": "VVISYSMPD", "note": "[VISY peptide (…, SEQ ID NO:112)]", "values": [{"measurement": "% inhibition of Annexin V binding to GST-β5", "setting": "[3]", "value": 45, "unit": "%"}, {"measurement": "% inhibition of Annexin V binding to GST-β5", "setting": "[4]", "value": 67, "unit": "%"}]}
{"binder": "CNLSSEQC", "note": "[phage displaying CNLSSEQC (SEQ ID NO:103)]", "values": [{"measurement": "β3/GST Ratio", "setting": "[1]", "value": 2.7}, {"measurement": "β3/BSA Ratio", "setting": "[2]", "value": 62}]}
{"binder": "VVISYSMPD", "note": "[phage displaying … (SEQ ID NO:112)]", "values": [{"measurement": "β5/GST Ratio", "setting": "[5]", "value": 3.8}, {"measurement": "β5/BSA Ratio", "setting": "[6]", "value": 28}]}
{"binder": "YDWWYPWSW", "note": "[phage displaying … (SEQ ID NO:95)]", "values": [{"measurement": "β3/GST Ratio", "setting": "[1]", "value": 5.6}, {"measurement": "β3/BSA Ratio", "setting": "[2]", "value": 163}]}
{"binder": "CPKVCPRECESNC", "note": "[phage displaying … (SEQ ID NO:127)]", "values": [{"measurement": "fold enrichment relative to SK-RC-49 parental cells", "setting": "[7]", "value": 6, "unit": "fold"}]}
{"binder": "RAIL[pY]RLAN (also: tyrosine phosphorylated in vitro with Fyn kinase)", "note": "[Fyn-phosphorylated phage displaying … (SEQ ID NO:116)]", "values": [{"measurement": "Phos/Unphos", "setting": "[8]", "value": 2.8}, {"measurement": "β3 or β5/GST", "setting": "[9]", "value": 1.3}, {"measurement": "β3 or β5/BSA", "setting": "[10]", "value": 20}]}
{"binder": "SDNRYIGSW", "note": "[phage displaying … (SEQ ID NO:97)]", "values": [{"measurement": "β3/GST Ratio", "setting": "[1]", "value": 3.3}, {"measurement": "β3/BSA Ratio", "setting": "[2]", "value": 32}]}
{"binder": "CPRECESIC (disulfide (positions not given here); also: mixture of disulfide isomers and dimers)", "note": "[CPRECESIC (SEQ ID NO:123) soluble peptide]", "values": [{"measurement": "APA enzyme activity on SK-RC-49/APA cells (α-glutamyl-p-nitroanilide, colorimetric), IC50", "setting": "[11]", "value": 800, "unit": "µM"}]}
{"binder": "TLRK[pY]FHSS (also: tyrosine phosphorylated in vitro with Fyn kinase)", "note": "[Fyn-phosphorylated phage displaying … (SEQ ID NO:121)]", "values": [{"measurement": "Phos/Unphos", "setting": "[12]", "value": 1.8}, {"measurement": "β3 or β5/BSA", "setting": "[13]", "value": 7.3}, {"measurement": "β3 or β5/GST", "setting": "[14]", "value": 5.6}]}
{"binder": "CYNLCIRECESICGADGACWTWCADGCSRSC", "note": "[phage displaying … (SEQ ID NO:125)]", "values": [{"measurement": "fold enrichment relative to SK-RC-49 parental cells", "setting": "[7]", "value": 6, "unit": "fold"}]}
{"binder": "CEQRQTQEGC", "note": "[phage displaying … (SEQ ID NO:93)]", "values": [{"measurement": "β3/GST Ratio", "setting": "[1]", "value": 4.3}, {"measurement": "β3/BSA Ratio", "setting": "[2]", "value": 14}]}
{"binder": "KQFSYRYLL", "note": "[phage displaying … (SEQ ID NO:111)]", "values": [{"measurement": "β5/GST Ratio", "setting": "[5]", "value": 4.5}, {"measurement": "β5/BSA Ratio", "setting": "[6]", "value": 8}]}
{"binder": "SDWYYPWSW", "note": "[phage displaying … (SEQ ID NO:100), selected on β3]", "values": [{"measurement": "β3/GST Ratio", "setting": "[1]", "value": 2.1}, {"measurement": "β3/BSA Ratio", "setting": "[2]", "value": 157}]}
{"binder": "CEPYWDGWFC", "note": "[phage displaying … (SEQ ID NO:106)]", "values": [{"measurement": "β5/GST Ratio", "setting": "[5]", "value": 3.1}, {"measurement": "β5/BSA Ratio", "setting": "[6]", "value": 400}]}
{"binder": "CYIWPDSGLC", "note": "[phage displaying … (SEQ ID NO:105)]", "values": [{"measurement": "β5/GST Ratio", "setting": "[5]", "value": 5.2}, {"measurement": "β5/BSA Ratio", "setting": "[6]", "value": 193}]}
{"binder": "CLRQSYSYNC", "note": "[phage displaying … (SEQ ID NO:104)]", "values": [{"measurement": "β3/GST Ratio", "setting": "[1]", "value": 2.4}, {"measurement": "β3/BSA Ratio", "setting": "[2]", "value": 3.2}]}
{"binder": "DEEGYYMMR", "note": "[phage displaying … (SEQ ID NO:110)]", "values": [{"measurement": "β5/GST Ratio", "setting": "[5]", "value": 11.5}, {"measurement": "β5/BSA Ratio", "setting": "[6]", "value": 29}]}
{"binder": "SDWYYPWSW", "note": "[phage displaying … (SEQ ID NO:113), selected on β5]", "values": [{"measurement": "β5/GST Ratio", "setting": "[5]", "value": 2.4}, {"measurement": "β5/BSA Ratio", "setting": "[6]", "value": 304}]}
{"binder": "CFQNRC", "note": "[phage displaying CFQNRC (SEQ ID NO:102)]", "values": [{"measurement": "β3/GST Ratio", "setting": "[1]", "value": 3.1}, {"measurement": "β3/BSA Ratio", "setting": "[2]", "value": 16}]}
{"binder": "KVSWYLDNG", "note": "[phage displaying … (SEQ ID NO:99)]", "values": [{"measurement": "β3/GST Ratio", "setting": "[1]", "value": 2.1}, {"measurement": "β3/BSA Ratio", "setting": "[2]", "value": 20}]}
{"binder": "CWDQNYLDDC", "note": "[phage displaying … (SEQ ID NO:109)]", "values": [{"measurement": "β5/GST Ratio", "setting": "[5]", "value": 1.5}, {"measurement": "β5/BSA Ratio", "setting": "[6]", "value": 100}]}
{"binder": "CLGQCASICVNDC", "note": "[phage displaying … (SEQ ID NO:126)]", "values": [{"measurement": "fold enrichment relative to SK-RC-49 parental cells", "setting": "[7]", "value": 6, "unit": "fold"}]}
{"binder": "YEWWYWSWA", "note": "[phage displaying … (SEQ ID NO:98)]", "values": [{"measurement": "β3/GST Ratio", "setting": "[1]", "value": 2.2}, {"measurement": "β3/BSA Ratio", "setting": "[2]", "value": 28.1}]}
{"binder": "GLDTYRGSP", "note": "[phage displaying … (SEQ ID NO:96)]", "values": [{"measurement": "β3/GST Ratio", "setting": "[1]", "value": 4.1}, {"measurement": "β3/BSA Ratio", "setting": "[2]", "value": 48}]}
